Test results from article PMC12705745.

Target: T1, recombinant human C-reactive protein (human), P02741
T1 chain: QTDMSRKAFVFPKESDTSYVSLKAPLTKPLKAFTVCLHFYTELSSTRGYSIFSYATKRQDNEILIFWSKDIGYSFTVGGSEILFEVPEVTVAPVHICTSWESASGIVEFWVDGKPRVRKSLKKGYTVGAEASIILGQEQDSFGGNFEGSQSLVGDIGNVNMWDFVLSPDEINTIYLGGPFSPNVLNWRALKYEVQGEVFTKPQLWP
Test: cryo-EM structure; hCRP 6 mg/ml incubated with 4.5 mM CPS23F on ice for ~1 h, 0.02% Tween-20; C5 symmetry applied during reconstruction; 2.78 Å
Conditions: remark: other sources report otherwise

stoichiometry N: 5
B1: recombinant human C-reactive protein, P02741-1 19-224 (natural protein)
chain: T1 chain
